These results are taken from patent US20100239594A1 (IBIO, published 2010).

For test [1], the target named is Bacillus anthracis protective antigen (PA) polypeptide (Bacillus anthracis, UniProt P13423 30-764). Briefly: Western blot and ELISA, plant-produced antibody. (In western blotting, separated proteins are transferred to a membrane and probed.)
Test [2] addresses T1, Bacillus anthracis lethal factor (LF) polypeptide (Bacillus anthracis, UniProt P15917 34-809).
T1 sequence: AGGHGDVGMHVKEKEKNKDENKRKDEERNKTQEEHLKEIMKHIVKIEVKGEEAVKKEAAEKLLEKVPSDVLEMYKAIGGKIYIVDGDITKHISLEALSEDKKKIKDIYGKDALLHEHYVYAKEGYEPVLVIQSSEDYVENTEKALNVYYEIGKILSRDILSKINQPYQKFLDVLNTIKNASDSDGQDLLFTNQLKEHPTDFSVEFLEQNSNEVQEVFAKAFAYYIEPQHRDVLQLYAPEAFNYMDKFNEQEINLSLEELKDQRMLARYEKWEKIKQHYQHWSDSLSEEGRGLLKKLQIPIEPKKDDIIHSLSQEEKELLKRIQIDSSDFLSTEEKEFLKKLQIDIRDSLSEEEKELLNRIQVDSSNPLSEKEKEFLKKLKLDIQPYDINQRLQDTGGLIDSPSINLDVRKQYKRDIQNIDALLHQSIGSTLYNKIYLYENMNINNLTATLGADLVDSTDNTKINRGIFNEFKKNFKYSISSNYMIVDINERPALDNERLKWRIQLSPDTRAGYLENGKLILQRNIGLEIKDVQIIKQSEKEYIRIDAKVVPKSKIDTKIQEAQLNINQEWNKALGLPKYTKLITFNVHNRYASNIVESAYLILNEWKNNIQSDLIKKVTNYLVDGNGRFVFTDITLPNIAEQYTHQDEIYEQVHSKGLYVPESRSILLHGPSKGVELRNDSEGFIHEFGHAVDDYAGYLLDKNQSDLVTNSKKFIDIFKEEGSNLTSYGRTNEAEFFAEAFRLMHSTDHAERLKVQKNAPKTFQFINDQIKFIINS
Briefly: Western blot and ELISA, plant-produced antibody.

Sequence of Bacillus anthracis protective antigen (PA) polypeptide (P13423 30-764 limits assumed): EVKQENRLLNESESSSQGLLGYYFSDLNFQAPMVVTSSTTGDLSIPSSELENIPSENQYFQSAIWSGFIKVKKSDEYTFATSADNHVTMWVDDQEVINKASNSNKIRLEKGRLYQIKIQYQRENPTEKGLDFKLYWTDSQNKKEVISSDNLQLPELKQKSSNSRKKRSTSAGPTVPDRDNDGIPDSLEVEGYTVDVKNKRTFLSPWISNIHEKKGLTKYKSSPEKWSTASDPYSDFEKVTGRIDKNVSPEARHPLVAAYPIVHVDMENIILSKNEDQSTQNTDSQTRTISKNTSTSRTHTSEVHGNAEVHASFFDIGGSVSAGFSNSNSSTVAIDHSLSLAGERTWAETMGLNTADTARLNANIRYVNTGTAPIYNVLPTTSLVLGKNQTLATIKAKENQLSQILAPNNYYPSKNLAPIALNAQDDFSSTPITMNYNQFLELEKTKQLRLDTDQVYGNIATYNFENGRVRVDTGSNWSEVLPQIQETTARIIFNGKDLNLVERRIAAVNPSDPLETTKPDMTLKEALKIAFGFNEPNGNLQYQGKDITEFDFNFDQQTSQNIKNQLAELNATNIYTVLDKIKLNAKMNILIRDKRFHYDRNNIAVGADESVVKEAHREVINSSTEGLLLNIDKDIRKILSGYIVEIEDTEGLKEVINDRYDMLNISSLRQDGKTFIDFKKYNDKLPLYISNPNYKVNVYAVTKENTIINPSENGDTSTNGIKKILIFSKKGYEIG

B1: PA-1 huMAb, plant-produced glycosylated PA antibody (antibody, V domains shown)
VH: QVQLVQSGAEVKKPGASVKVSCKASGYTFTSNAIQWVRQAPGQRLEWVGWINGGDGNTKYSQKFQGRVTISRDISASTAYMELSSLRSEDTAVYYCARHRLQRGGFDPWGQGTLVTVSS
VL: EIVLTQSPGTLSLSPGERATLSCRASQSVSYSSLAWYQQKPGQAPSLLIYGASSRATGIPDRFSGSGSGPDFTLTISRLEPEDFAVYYCQHYGNSPYTFGQGTKLEIKR
For B1, the binding result in test [1] is given as “binds”.

B2: LF-1 huMAb, plant-produced LF antibody (antibody, V domains shown)
VH: EVQLLESGGGLVQPGGSLRLSCSGSGFMFSSYAMSWVRQAPGKGLEWVSGISGSGGTTNYADSVKGRFTISRDNSKNTLYMQMNSLRAEDTAVYYCAKDGVYGRLGGSDYWGQGTLVTVSS
VL: EIVLTQSPDFQSVSPKEKVTITCRASQSVGSSLHWYQQKPDQSPKLLIKYASQSFSGVPSRFSGSGSGTDFTLTINSLETEDAATYYCHQSSSLPLTFGGGTKVEIKR
On to B2, for which the binding result in test [2] is recorded as “binds”.
